Measurements published in patent US10155934B2, “Cytochrome P450 polypeptide with increased enzyme activity” (SANOFI, priority 2014, dated 2018).
Substitutions are numbered along the chain they refer to. In names and notes the source's numbering stands.

B1: SA1: CYP11A1 comprising a threonine at position 225 and an aspartic acid at position 289 (protein)
chain: ISTKTPRPYSEIPSPGDNGWLNLYHFWREKGSQRIHFRHIENFQKYGPIYREKLGNLESVYIIHPEDVAHLFKFEGSYPERYDIPPWLAYHRYYQKPIGVLFKKSGTWKKDRVVLNTEVMAPEAIKNFIPLLNPVSQDFVSLLHKRIKQQGSGKFVGDIKEDLFHFAFESITNVMFGERLGMLEETVNPEAQKFIDAVYKMFHTSVPLLNVPPELYRLFRTKTWTDHVAAWDTIFNKAEKYTEIFYQDLRRKTEFRNYPGILYCLLKSEKMLLEDVKANITEMLAGGVDTTSMTLQWHLYEMARSLNVQEMLREEVLNARRQAEGDISKMLQMVPLLKASIKETLRLHPISVTLQRYPESDLVLQDYLIPAKTLVQVAIYAMGRDPAFFSSPDKFDPTRWLSKDKDLIHFRNLGFGWGVRQCVGRRIAELEMTLFLIHILENFKVEMQHIGDVDTIFNLILTPDKPIFLVFRPFNQDPPQA
modifications: Mutated amino acid sequence of CYP11A1
B2: SA4: WT Bos taurus CYP11A1, mature form, wild-type control (protein, listed as Bos taurus)
chain: B1 chain with T225R, D289N
B3: SA6: P450scc-I1A-K193E polypeptide, control (protein)
chain: B1 chain with I1A, K154E, T225R, D289N
modifications: Mutated amino acid sequence of CYP11A1
notes: P450scc-I1A-K193E polypeptide, control

How the values were obtained:
cholesterol [1] = assay: In vivo conversion of cholesterol into pregnenolone by recombinant Bacillus megaterium expressing the P450scc polypeptide; format: cell-based; conditions: 300 μM cholesterol, Bacillus megaterium MS941, assessed after 24 h and 48 h (FIGS. 3 and 4)
cholesterol [2] = assay: In vitro conversion assay of cholesterol by purified CYP11A1 variants with Adx and AdR; format: biochemical; conditions: 20 μM cholesterol, saturating Adx and AdR; for activity, SA4 compared with SA6 (in vitro conversion of cholesterol): 1 μM enzyme
Procedure: For in vitro enzyme assays, 150 mM of HEPES buffer, adjusted to pH 7.4, containing 0.05% Tween-20 and 1 mM MgCl2, were applied as reaction buffer. 1 unit of glucose-6-phosphate dehydrogenase, with 5 mM glucose-6-phosphate as substrate, served as a NADPH-regenerating system.
For WT P450scc (noted “SA4”, SEQ ID NO: 4) and P450scc-I1A-K193E (noted “SA6”, SEQ ID NO: 6) the concentrations of CYP11A1, Adx and AdR were of 1 μM, 20 μM and 0.5 μM, and for P450scc-R225T-N289D (noted “SA1”, SEQ ID NO: 1) the concentrations of CYP11A1, Adx and AdR were of 0.25 μM, 5 μM and 0.125 μM, respectively.
The samples were pre-warmed to 37° C. and the reaction was started by addition of NADPH to a final concentration of 100 μM. The mixtures were incubated at 37° C. with agitation for 30 s. The reaction was stopped by boiling the samples in water for 30 s.
To allow photometric detection at 240 nm, the steroids were converted into their 3-keto-Δ4 derivatives using a cholesterol oxidase from Nocardia spec.
20 μl of a cholesterol oxidase solution (5 mg cholesterol oxidase and 5 mg Na-cholate dissolved in 5 ml of 50 mM HEPES buffer pH 7, containing 0.05% Tween-20) were added to the samples. After incubation at 37° C. for 1 h, 11-deoxycorticosterone (DOC) was added to the reaction mixtures as an internal standard, followed by a 2-times extraction with equal volumes of ethylacetate. After evaporation, the extracts were dissolved in acetonitrile/water.
After acute evaluation of the concentration of each P450scc preparation, SA1, SA4 and SA6 were used in the following in vitro assays. Each of these isoforms was reconstituted at a concentration of 1 μM in the presence of cholesterol as a substrate (20 μM) in saturating amounts of Adx and AdR.

Molecule	in vivo cholesterol conversion activity compared to SA6 (cholesterol [1]) [fold]	activity compared to SA4 and SA6 (in vitro conversion of cholesterol) (cholesterol [2]; 37° C., 30 s, HPLC (FIG. 1))	activity, SA4 compared with SA6 (in vitro conversion of cholesterol) (cholesterol [2])
B1	2	2-3 fold	–
B2	–	–	identical activity
B3	–	–	identical activity
